Laboratory results published in IntAct's records for PubMed 31515488.

B1: Testis-specific protein 10-interacting protein (Homo sapiens), Q3SY00 (parent)
chain: MGQDTDMLNTYQQLVRTPSVRPGQDVRLQAPGTRTGLLKLLSTVSQDKQGCLGSGDGVPNQDLQQRSQSSRQTAKKDRKPRGQSKKGQGSEESEDHFPLLPRKPSFPFQWAWESIATDVRAVLQPSSPTPGHQALPMPSSFSQRQSRRKSTANLPEAHGCCWKTEAQNLKARQQLGAWGGVSIPTGKGELGSEPPSGLQLPGRRPGSGSASDKQVQLQSLGAEEAERGLSSGVLPQRPRRGSISEEEQFSEATEEAEEGEHRTPCRRRAGCQRKGQISGEEASDEGEVQGQSQGSSPSFNNLRRRQWRKTRAKELQGPWDLEKLHRQLQRDLDCGPQKLPWKTLRAAFQASKRNGKAYASGYDETFVSANLPNRTFHKRQEATRSLLQAWERQRQEERQQAELRRARTQHVQRQVAHCLAAYAPRGSRGPGAAQRKLEELRRQERQRFAEYQAELQGIQHRVQARPFLFQQAMQANARLTVTRRFSQVLSALGLDEEQLLSEAGKVDREGTPRKPRSHRSMGVRMEHSPQRPPRTEPTGSQPDRHYNPSLDPECSP
B2: Keratin, type I cytoskeletal 40 (Homo sapiens), Q6A162 (parent)
chain: MTSDCSSTHCSPESCGTASGCAPASSCSVETACLPGTCATSRCQTPSFLSRSRGLTGCLLPCYFTGSCNSPCLVGNCAWCEDGVFTSNEKETMQFLNDRLASYLEKVRSLEETNAELESRIQEQCEQDIPMVCPDYQRYFNTIEDLQQKILCTKAENSRLAVQLDNCKLATDDFKSKYESELSLRQLLEADISSLHGILEELTLCKSDLEAHVESLKEDLLCLKKNHEEEVNLLREQLGDRLSVELDTAPTLDLNRVLDEMRCQCETVLANNRREAEEWLAVQTEELNQQQLSSAEQLQGCQMEILELKRTASALEIELQAQQSLTESLECTVAETEAQYSSQLAQIQCLIDNLENQLAEIRCDLERQNQEYQVLLDVKARLEGEINTYWGLLDSEDSRLSCSPCSTTCTSSNTCEPCSAYVICTVENCCL

Variants of: B1
Details: with mtus2_human MTUS2, Q5JR59
mtus2_human MTUS2, Q5JR59, sequence (Q5JR59 whole entry): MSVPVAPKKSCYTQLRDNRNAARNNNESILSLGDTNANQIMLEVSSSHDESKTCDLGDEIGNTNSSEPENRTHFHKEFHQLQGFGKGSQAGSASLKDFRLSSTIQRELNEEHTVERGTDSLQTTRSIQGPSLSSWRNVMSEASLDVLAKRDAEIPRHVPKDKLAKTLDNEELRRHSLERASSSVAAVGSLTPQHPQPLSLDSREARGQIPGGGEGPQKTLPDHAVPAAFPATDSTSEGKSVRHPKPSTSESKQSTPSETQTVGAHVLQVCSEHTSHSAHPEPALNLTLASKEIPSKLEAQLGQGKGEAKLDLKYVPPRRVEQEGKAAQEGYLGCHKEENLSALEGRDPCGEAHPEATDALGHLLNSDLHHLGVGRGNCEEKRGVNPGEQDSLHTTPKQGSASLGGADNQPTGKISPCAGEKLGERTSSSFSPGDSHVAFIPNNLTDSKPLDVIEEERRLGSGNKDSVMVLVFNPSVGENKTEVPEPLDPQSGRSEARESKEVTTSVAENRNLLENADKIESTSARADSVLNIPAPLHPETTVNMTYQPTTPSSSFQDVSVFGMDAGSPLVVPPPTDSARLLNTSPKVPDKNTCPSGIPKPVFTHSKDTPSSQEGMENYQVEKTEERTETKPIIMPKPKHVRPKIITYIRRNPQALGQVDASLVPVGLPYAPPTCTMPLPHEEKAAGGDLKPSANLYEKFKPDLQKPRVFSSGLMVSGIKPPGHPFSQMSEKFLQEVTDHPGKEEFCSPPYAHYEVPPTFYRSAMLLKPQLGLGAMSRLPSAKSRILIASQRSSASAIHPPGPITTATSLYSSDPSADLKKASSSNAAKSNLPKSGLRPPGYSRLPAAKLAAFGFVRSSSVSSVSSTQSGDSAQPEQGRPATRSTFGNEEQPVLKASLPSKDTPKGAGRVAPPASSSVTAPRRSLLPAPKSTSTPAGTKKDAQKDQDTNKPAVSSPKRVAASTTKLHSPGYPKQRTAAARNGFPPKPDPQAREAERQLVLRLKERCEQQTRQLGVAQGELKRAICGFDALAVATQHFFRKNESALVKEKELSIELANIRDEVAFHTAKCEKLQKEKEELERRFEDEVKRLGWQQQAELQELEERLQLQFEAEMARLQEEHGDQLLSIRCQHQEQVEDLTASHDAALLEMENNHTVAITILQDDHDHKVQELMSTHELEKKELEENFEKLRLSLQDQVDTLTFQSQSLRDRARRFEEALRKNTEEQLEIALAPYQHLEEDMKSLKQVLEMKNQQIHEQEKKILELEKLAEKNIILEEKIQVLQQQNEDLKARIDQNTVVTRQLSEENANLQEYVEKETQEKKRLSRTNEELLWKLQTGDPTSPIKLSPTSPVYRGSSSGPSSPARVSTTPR

Variant	effect of a mutation on the interaction
V215A	with no effect
H96L	with no effect

Results, then the variant that gave them:

effect of a mutation on the interaction	Variant
with no effect	S292N
with no effect	R303Q

Variants of: B2
Details: with wt1_human WT1, P19544
wt1_human WT1, P19544, sequence (P19544 whole entry): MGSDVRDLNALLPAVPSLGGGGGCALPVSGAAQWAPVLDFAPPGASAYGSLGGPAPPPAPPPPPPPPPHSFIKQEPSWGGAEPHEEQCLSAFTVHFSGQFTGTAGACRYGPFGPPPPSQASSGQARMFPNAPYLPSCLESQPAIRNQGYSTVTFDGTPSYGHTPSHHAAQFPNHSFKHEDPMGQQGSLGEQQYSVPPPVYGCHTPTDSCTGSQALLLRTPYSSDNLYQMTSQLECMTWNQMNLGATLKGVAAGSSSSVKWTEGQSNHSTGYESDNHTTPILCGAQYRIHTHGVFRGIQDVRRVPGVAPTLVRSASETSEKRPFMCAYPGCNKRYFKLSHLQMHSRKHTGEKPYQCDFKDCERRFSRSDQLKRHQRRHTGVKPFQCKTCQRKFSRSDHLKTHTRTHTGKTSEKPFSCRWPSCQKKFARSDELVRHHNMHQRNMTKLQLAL

Variant	effect of a mutation on the interaction
T37A	with no effect
R235H	with no effect

Now from value to variant:

effect of a mutation on the interaction	Variant
with no effect	M303T
with no effect	E286D
with no effect	T388M

Variants of: B2
Details: with k2c4_human KRT4, P19013
k2c4_human KRT4, P19013, sequence (P19013 whole entry): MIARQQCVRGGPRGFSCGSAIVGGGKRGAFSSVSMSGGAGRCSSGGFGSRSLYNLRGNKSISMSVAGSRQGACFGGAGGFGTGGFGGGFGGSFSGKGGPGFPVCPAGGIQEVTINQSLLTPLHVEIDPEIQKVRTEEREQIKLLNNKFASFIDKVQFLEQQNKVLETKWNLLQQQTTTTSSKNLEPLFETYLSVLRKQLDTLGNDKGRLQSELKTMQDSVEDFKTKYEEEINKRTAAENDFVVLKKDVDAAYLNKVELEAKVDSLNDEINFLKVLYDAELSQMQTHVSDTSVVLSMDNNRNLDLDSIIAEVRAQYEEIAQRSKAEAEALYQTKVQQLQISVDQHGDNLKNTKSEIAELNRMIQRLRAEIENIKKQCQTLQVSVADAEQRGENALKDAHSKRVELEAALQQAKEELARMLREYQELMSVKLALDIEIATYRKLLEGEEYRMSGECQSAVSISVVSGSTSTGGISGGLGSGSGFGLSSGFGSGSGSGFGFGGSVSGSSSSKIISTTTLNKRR

Variant	effect of a mutation on the interaction
T37A	with no effect
R235H	with no effect

Results, then the variant that gave them:

effect of a mutation on the interaction	Variant
with no effect	M303T
with no effect	E286D
with no effect	T388M

Variants of: B2
Details: with mta1_human MTA1, Q13330
mta1_human MTA1, Q13330, sequence (Q13330 whole entry): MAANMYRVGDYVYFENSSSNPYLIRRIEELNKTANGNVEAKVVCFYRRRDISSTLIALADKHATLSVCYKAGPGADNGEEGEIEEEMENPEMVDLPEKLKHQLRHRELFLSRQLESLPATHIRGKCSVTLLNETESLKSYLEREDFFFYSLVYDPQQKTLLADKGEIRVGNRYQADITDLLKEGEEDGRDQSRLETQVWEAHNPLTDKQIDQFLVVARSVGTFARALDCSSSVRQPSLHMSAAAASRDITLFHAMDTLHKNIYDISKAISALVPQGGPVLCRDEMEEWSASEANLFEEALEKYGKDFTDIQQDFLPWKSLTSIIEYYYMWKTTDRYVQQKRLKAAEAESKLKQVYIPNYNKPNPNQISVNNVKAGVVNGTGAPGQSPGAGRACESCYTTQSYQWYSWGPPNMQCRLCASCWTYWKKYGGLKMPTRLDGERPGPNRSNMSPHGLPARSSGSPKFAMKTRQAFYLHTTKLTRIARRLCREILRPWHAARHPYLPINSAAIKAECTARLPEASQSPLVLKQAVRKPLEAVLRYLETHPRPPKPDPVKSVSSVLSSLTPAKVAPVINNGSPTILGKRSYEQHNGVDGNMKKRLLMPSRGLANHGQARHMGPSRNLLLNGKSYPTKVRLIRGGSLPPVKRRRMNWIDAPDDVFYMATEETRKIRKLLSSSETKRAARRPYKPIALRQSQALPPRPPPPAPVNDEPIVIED

Variant	effect of a mutation on the interaction
T37A	with no effect
R235H	with no effect

Other lines, results leading:

effect of a mutation on the interaction	Variant
with no effect	M303T
with no effect	E286D
with no effect	T388M

Variants of: B2
Details: with prs8_human PSMC5, P62195
prs8_human PSMC5, P62195, sequence (P62195 whole entry): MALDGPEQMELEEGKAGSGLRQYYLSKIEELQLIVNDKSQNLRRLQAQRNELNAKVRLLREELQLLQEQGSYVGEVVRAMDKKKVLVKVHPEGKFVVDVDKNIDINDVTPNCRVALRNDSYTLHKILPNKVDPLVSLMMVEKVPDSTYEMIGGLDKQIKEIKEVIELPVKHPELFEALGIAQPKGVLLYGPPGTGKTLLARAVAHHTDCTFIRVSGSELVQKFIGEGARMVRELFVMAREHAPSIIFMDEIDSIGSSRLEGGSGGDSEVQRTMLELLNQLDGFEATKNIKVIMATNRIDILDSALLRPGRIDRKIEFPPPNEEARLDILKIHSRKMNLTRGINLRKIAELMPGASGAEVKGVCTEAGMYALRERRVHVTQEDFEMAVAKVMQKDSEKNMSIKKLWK

Variant	effect of a mutation on the interaction
T37A	with no effect
R235H	with no effect

Other lines, results leading:

effect of a mutation on the interaction	Variant
with no effect	M303T
with no effect	E286D
with no effect	T388M

Variants of: B2
Details: with snai1_human SNAI1, O95863
snai1_human SNAI1, O95863, sequence (O95863 whole entry): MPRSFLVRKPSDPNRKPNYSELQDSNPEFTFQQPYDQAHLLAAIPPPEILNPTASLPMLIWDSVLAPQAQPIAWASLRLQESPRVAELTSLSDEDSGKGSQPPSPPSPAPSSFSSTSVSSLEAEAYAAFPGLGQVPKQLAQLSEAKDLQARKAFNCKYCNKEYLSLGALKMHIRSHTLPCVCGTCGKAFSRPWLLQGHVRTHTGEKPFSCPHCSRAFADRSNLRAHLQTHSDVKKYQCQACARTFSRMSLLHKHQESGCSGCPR

Variant	effect of a mutation on the interaction
T37A	with no effect
R235H	with no effect

Continued, values first:

effect of a mutation on the interaction	Variant
with no effect	M303T
with no effect	E286D
with no effect	T388M
